Data set [1] concerns the target T1, FtFur WT (Francisella tularensis FSC198 (100% …, UniProt Q5NIN6 1-140)). Put plainly: SEC-MALLS-RI. Particulars: protein: recombinant; tags: none; chain copies: 4; label: none (SEC-MALLS, SAXS).
In data set [2] the target is T1, FtFur WT. Put plainly: EMSA; 10 uM Mn2+; main species one dimer bound. Particulars: protein: recombinant; tags: none; chain copies: 4; label: 32P 5' end (EMSA). Background: A gel shift assay detects complexes by their altered migration in electrophoresis.
The target of data set [3] is T1, FtFur WT. Put plainly: EMSA. Particulars: protein: recombinant; tags: none; chain copies: 4; label: 32P 5' end (EMSA).

Our source for the binding result and Kd values is paper PMC6123631.

B1: FurBox (EcFurBox) (dsDNA)
DNA 1: GGGGATAATGATAATCATTATCGGG
DNA 2: CCCGATAATGATTATCATTATCCCC
Turning to B1, the binding result in data set [1] was “binds”.

B2: PfigAS (dsDNA)
DNA 1: GGGGATAATGATAACGAATATCATTATCGGG
DNA 2: CCCGATAATGATATTCGTTATCATTATCCCC
Regarding B2, in data set [2], the binding result is recorded as “binds”.

B3: PfigAL (PfigA, 43 bp) (dsDNA)
DNA 1: GGGCTACATGATAATGATAACGAATATCATTATCGTTTATGGG
DNA 2: CCCATAAACGATAATGATATTCGTTATCATTATCATGTAGCCC
As for B3, the dissociation constant Kd (in general, the constant that tells how readily two partners part at equilibrium) in data set [3] was around 5 nM.
